This is an account of results in paper PMC10917064.

A word on the stoichiometry N: it is a count of units in the complex or per binding partner.

Assay [1] concerns the target mUb-K240 VASP (VASP^CCC-SSA K240C crosslinked by bismaleimidoethane to ubiquitin^(1-74, G75C)) (UniProt P0CG48). Put plainly: mass photometry; 15 nM VASP, room temperature, Refeyn One; margin of error of each mass about 20-25%.
Assay [2] addresses unmodified VASP (TAMRA–VASP; cysteine-light VASP^CCC-SSA with an N-terminal GGG motif) (human). The assay is described as above.
For assay [3], the target named is chicken skeletal muscle actin (filaments, 10% Alexa Fluor 488 labeled) (chicken) (UniProt P68139). The assay can be described thus: single-molecule TIRF microscopy (dwell time); 1 nM TAMRA–VASP at the trailing barbed end of two-filament bundles; 1.5 µM actin (10% Alexa Fluor 488 labeled), 673 nM fascin, TIRF buffer, room temperature; 0.5 s/frame; one-phase decay fit of 1−cumulative frequency.

The target of assay [4] is mmUb-K240/K286 VASP (VASP^CCC-SSA K240C, K286C crosslinked by bismaleimidoethane to two ubiquitin^(1-74, G75C)) (UniProt P0CG48). Put plainly: mass photometry; 15 nM VASP, room temperature, Refeyn One; margin of error of each mass about 20-25%.
The target of assay [5] is mUb-K286 VASP (VASP^CCC-SSA K286C crosslinked by bismaleimidoethane to ubiquitin^(1-74, G75C)) (UniProt P0CG48). The assay is described as above.

Regarding “mUb-K240 VASP (VASP^CCC-SSA K240C crosslinked by bismaleimidoethane to ubiquitin^(1-74, G75C)) (from UniProt P0CG48 1-75) (complex)”, the stoichiometry N in assay [1] is 4.
With “unmodified VASP (TAMRA–VASP; cysteine-light VASP^CCC-SSA with an N-terminal GGG motif) (natural protein)”, in assay [2], the stoichiometry N stood at 4. In addition, the lifetime τ1 at the barbed end in assay [3] was found to be 1.17 s.
In the case of “mmUb-K240/K286 VASP (VASP^CCC-SSA K240C, K286C crosslinked by bismaleimidoethane to two ubiquitin^(1-74, G75C)) (from UniProt P0CG48 1-75) (complex)”, in assay [4], the stoichiometry N worked out at 4. In assay [3], this substance returned a lifetime τ1 at the barbed end of 1.14 s.
The substance “mUb-K286 VASP (VASP^CCC-SSA K286C crosslinked by bismaleimidoethane to ubiquitin^(1-74, G75C)) (from UniProt P0CG48 1-75) (complex)” came in with a stoichiometry N in assay [5] of 4.
